Reference: patent US20150218255A1 (US Dept. of Health and Human Services, published 2015)

Key:
[1] = target: T1, DENV envelope domain III, serotype 3 (antigen of the Biacore assays) (Dengue virus serotype 3 (consensus …, UniProt Q5UB51 569-672)); assay: SPR (Biacore)
T1 construct: also called DIII serotype 3; DIII.3

[2] = target: T2, DENV envelope domain III, serotype 1 (antigen of the Biacore assays) (Dengue virus serotype 1 (consensus …, UniProt P17763 571-674)); assay: SPR (Biacore)
T2 construct: also called DIII serotype 1; DIII.1
T2 chain: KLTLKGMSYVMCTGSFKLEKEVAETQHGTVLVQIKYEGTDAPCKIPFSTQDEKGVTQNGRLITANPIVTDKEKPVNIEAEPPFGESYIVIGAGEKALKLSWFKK

[3] = target: T3, DENV envelope domain III, serotype 2 (antigen of the Biacore assays) (Dengue virus serotype 2 (consensus …, UniProt P14337 571-674)); assay: SPR (Biacore)
T3 construct: also called DIII serotype 2; DIII.2
T3 sequence (P14337 571-674 limits assumed): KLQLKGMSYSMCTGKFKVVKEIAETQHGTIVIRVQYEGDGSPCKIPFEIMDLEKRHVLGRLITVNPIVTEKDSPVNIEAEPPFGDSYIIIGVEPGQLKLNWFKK

[4] = target: T4, DENV envelope domain III, serotype 4 (antigen of the Biacore assays) (Dengue virus serotype 4 (consensus …, UniProt P09866 570-673)); assay: SPR (Biacore)
T4 construct: also called DIII serotype 4; DIII.4
T4 sequence (P09866 570-673 limits assumed): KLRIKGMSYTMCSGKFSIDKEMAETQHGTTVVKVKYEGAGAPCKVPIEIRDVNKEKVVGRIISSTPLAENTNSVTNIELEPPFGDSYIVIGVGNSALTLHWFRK

[5] = target: T1, DENV envelope domain III, serotype 3 …; assay: SPR (Biacore X100), scFv m366 immobilised on CM5, antigen injected, 1:1 Langmuir fit
[6] = target: T2, DENV envelope domain III, serotype 1 …; assay: as above
[7] = target: T3, DENV envelope domain III, serotype 2 …; assay: as above
[8] = target: T4, DENV envelope domain III, serotype 4 …; assay: as above
[9] = target: T1, DENV envelope domain III, serotype 3 …; assay: SPR (Biacore); remark: listed apart in the source
[10] = target: T2, DENV envelope domain III, serotype 1 …; assay: SPR (Biacore)
[11] = target: T3, DENV envelope domain III, serotype 2 …; assay: SPR (Biacore); remark: listed apart in the source
[12] = target: T4, DENV envelope domain III, serotype 4 …; assay: SPR (Biacore); remark: listed apart in the source

T1 sequence (Q5UB51 569-672 limits assumed): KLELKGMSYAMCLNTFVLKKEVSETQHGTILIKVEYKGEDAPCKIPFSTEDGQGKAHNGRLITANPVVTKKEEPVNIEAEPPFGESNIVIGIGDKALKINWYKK

B1: human anti-dengue virus antibody scFv m360.6 (scFv)
scFv: KVTLKESGPTLVKPRQTLTLTCTFSGFSLSTSGMRVSWVRQPPGKALEWIARIDWDDDKFYSTSLKTRLTISKDTFKNQVVLTMTNMDPVDTAMYYCVRTPYNWNDGPRGALDIWGQGTMVTVSSGGDRSDGGASGGGGSQSMLTQSPSVSAAPGQNVTISCSGDYPNIRNNYVSWYQQLPGAAPKLLIYDNNKRPSGIPDRFSGSKSGTSATLDITGLQTGDEADYYCGAWDSRLSAVVFGGGTKLTVLG
notes: also called antibody m360.6
- Kd [1]: 0.0023 nM
- Kd [2]: 0.31 nM
- Kd [3]: 0.24 nM
- Kd [4]: 33 nM

B2: human anti-dengue virus antibody scFv m366 (scFv)
scFv: QLQLQESGGGLVQPGGSLRLSCAASGFTFSSYSMNWVRQAPGKRLEWVSSISGSSSYIYYADSVKGRFTISRDNAKNSLYLQMDSLRAEDTAVYYCARYAAGIWTFDIWGQGTTVTVSSGGGGSGGGASGGGGSSYELTQPPSVSVAPGKTASISCGGDNIGRKSVHWFQQKPGQAPVLVLYDDSDRPSGIPARFSGSNSGNTATLTISRVEAGDEADYYCQVWARSSDHPNWVFGGGTKLTVLG
notes: also called antibody m366
- Kd [5]: 1.09 nM
- koff [5]: 0.000204 s⁻¹
- kon [5]: 186000 M⁻¹ s⁻¹
- Kd [6]: 6.14 nM
- Kd [7]: 2.51 nM
- Kd [8]: 12.4 nM

B3: human anti-dengue virus antibody scFv m366.6 (scFv)
scFv: QLQLQESGGGLVQPGGSLRLSCAASGFTFSSHSMNWIRQAPGKRLEWVSSISSSSSYIYYADSVRGRFTISRDNAKNSLYLQMDSLRAEDTAVYYCARYMAGIWTFDIWGQGTMVTVSSGGGGSGGGASGGGGSSYELTQPPSVSVAPGKTASISCGGDNIGRKSVHWFQQKPGQAPVLVLYDDSDRPSGIPARFSGSNSGNTATLTISGVEAGDEADYYCQVWARSSDLPNWVFGGGTKLTVLG
notes: also called antibody m366.6
- Kd [1]: 0.27 nM
- Kd [2]: 0.44 nM
- Kd [3]: 0.29 nM
- Kd [4]: 0.75 nM

B4: human anti-dengue virus antibody scFv m360 (scFv)
scFv: QVTLKESGPTLVKRTQTLTLTCTFFGFSLSTSGMRVSWIRQPPGKALEWIARIDWDDDKFYSISLKSRLTISKDTSKNQVVLTMTNMDPVDTATYYCARTPYNWNDGPRGAFDIWGQGTMVTVSSEGGGSGGGASSGGGSQSVLTQPPSVSAAPGQKVTIPCSGSYSNIRNNYVSWYQQLPGTAPKLLIYDDNKRPSGIPDRFSGSKSGTLATLVITGLQSGDEADYYCGTWDSSLSGVVFGGGTKLTVLG
notes: also called antibody m360
- Kd [9]: 0.116 nM
- Kd [10]: 5.84 nM
- Kd [11]: 5.13 nM
- Kd [12]: 82.8 nM
